Like-named read-outs stand apart in the source and are kept apart here.
Type: in vivo
Settings: for Edema / Fatigue / Fever / Infusion-related reaction / Musculoskeletal pain / Others (Constitutional) / Weight decreased: Constitutional; for Constipation / Decreased appetite / Diarrhea / Gastritis/GI bleed / Nausea / Others (Gastrointestinal) / Stomatitis / Vomiting: Gastrointestinal; for Any adverse event: worst toxicity grade; for ALT increased / AST increased / Abdominal pain / Bilirubin raised / GGT increased: Hepatic; for Dermatitis / Hepatitis / Others immune-related: Immune-related; for Amylase increased / Anemia / Hypercreatinine / Hyperglycemia / Hypokalemia / Hyponatremia / Hypothyroidism / Leukopenia / Lipase increased / Neutropenia / Thrombocytopenia: Laboratory; for Dry skin / Others (Skin) / Pruritus / Rash, acneiform / Rash, maculopapular / Rash, urticarial: Skin
Protocol: All patients underwent a single treatment of conventional TACE within 28 days of study enrolment. Conventional TACE was performed by supra-selective cannulation of all the branches supplying the tumor. The emulsion was prepared by mixing iodised oil with cisplatin (1 mg/mL) in a 1:1 ratio. A maximum of 60 mL of emulsion was injected. Preparation of the emulsion was followed by embolisation with gelfoam (gelatin granules) pellets of 1 mm diameter mixed with 40 mg of gentamicin. At 28 days (plus or minus 3 days) after the completion of TACE, stereotactic body radiotherapy was delivered to all lesions. Patients were immobilised via a vacuum foam bag (Vac-Lok™; MEDTEC, IA, USA) and active breathing control to reduce liver motion. Imaging was performed on the inhale breath-hold contrast CT. Gross tumor volume was defined as a tumor focus that was visualised by contrast imaging. The clinical target volume was defined as gross tumor volume with expansion to include the area stained with iodised oil. The individualised planning target volume margins were formulated to compensate for respiratory motion and setup errors. Cone beam CT was acquired on board before each treatment. A radiation dose of 27.5-40.0 Gy in five fractions delivered daily was allowed per protocol. The prescription isodose encompassed 95% of the planning target volume. The final dose was determined such that a maximum tumoricidal dose could be delivered to tumors while respecting the tolerance dose of the organ at risk (Table 3). The radiotherapy toxicity was assessed by CTCAE; version 4.01.
All patients underwent baseline contrast-enhanced MRI of the liver and CT of the thorax. Treatment response evaluation was assessed with MRI after cycle 4, cycle 8, and cycle 12 of avelumab and every 12 weeks thereafter (plus or minus 7 days). Radiological imaging was reported using the modified Response Evaluation Criteria in Solid Tumors (mRECIST). A CT of the thorax was done every 26 weeks or at the time of radiological or clinical evidence of disease progression according to mRECIST criteria. All patients were discussed in a multidisciplinary team board meeting of surgeons specializing in liver transplantation and liver surgery, clinical oncologists, interventional radiologists, and diagnostic radiologists. This meeting was held once every 2 weeks to decide resectability and treatment failure. All patients underwent complete tumor staging to exclude distant metastasis before surgery. A board-certified radiologist conducted an independent blinded review in addition to the investigator review. Safety assessments were documented throughout the treatment period. Adverse events were graded according to the US National Cancer Institute Common Terminology Criteria for Adverse Events (CTCAE; version 4.01). The frequency, duration, and severity of adverse events were recorded.
The primary endpoint was the percentage of patients deemed to be amenable to curative treatment after conversion therapy. Amenability for curative treatment was fulfilled when one of the following criteria was met: either a sustained complete response or sustained partial response achieved for at least 2 months and if curative treatment could be performed (based on investigator's review). […] Post-hoc analyses included radiological response according to immune RECIST, correlation of clinical outcomes with BCLC stage, albumin-bilirubin score, radiological assessment criteria, biomarkers, and median time to treatment response.

avelumab
4 (12%) number of patients (%): Decreased appetite (Grade 1-2) | Diarrhea (Grade 1-2) | Any adverse event (Grade 3) | Hyponatremia (Grade 1-2) | Thrombocytopenia (Grade 1-2)
9 (27%) number of patients (%): Fatigue (Grade 1-2) | Others (Constitutional) (Grade 1-2)
27 (82%) number of patients (%): Any adverse event (Grade 1-2)
0 (0%) number of patients (%): Edema (Grade 1-2) | Musculoskeletal pain (Grade 1-2) | Edema (Grade 3) | Fatigue (Grade 3) | Fever (Grade 3) | Infusion-related reaction (Grade 3) | Musculoskeletal pain (Grade 3) | Others (Constitutional) (Grade 3) | Weight decreased (Grade 3) | Edema (Grade 4) | Fatigue (Grade 4) | Fever (Grade 4) | Infusion-related reaction (Grade 4) | Musculoskeletal pain (Grade 4) | Others (Constitutional) (Grade 4) | Weight decreased (Grade 4) | Edema (Grade 5) | Fatigue (Grade 5) | Fever (Grade 5) | Infusion-related reaction (Grade 5) | Musculoskeletal pain (Grade 5) | Others (Constitutional) (Grade 5) | Weight decreased (Grade 5) | Gastritis/GI bleed (Grade 1-2) | Stomatitis (Grade 1-2) | Constipation (Grade 3) | Decreased appetite (Grade 3) | Diarrhea (Grade 3) | Gastritis/GI bleed (Grade 3) | Nausea (Grade 3) | Others (Gastrointestinal) (Grade 3) | Stomatitis (Grade 3) | Vomiting (Grade 3) | Constipation (Grade 4) | Decreased appetite (Grade 4) | Diarrhea (Grade 4) | Gastritis/GI bleed (Grade 4) | Nausea (Grade 4) | Others (Gastrointestinal) (Grade 4) | Stomatitis (Grade 4) | Vomiting (Grade 4) | Constipation (Grade 5) | Decreased appetite (Grade 5) | Diarrhea (Grade 5) | Gastritis/GI bleed (Grade 5) | Nausea (Grade 5) | Others (Gastrointestinal) (Grade 5) | Stomatitis (Grade 5) | Vomiting (Grade 5) | Adverse event, Lead to discontinuation (Grade 1-2) | Adverse event, Lead to discontinuation (Grade 5) | Any adverse event (Grade 5) | Abdominal pain (Grade 3) | Bilirubin raised (Grade 3) | GGT increased (Grade 3) | ALT increased (Grade 4) | Abdominal pain (Grade 4) | Bilirubin raised (Grade 4) | GGT increased (Grade 4) | ALT increased (Grade 5) | AST increased (Grade 5) | Abdominal pain (Grade 5) | Bilirubin raised (Grade 5) | GGT increased (Grade 5) | Others immune-related (Grade 3) | Dermatitis (Grade 4) | Hepatitis (Grade 4) | Others immune-related (Grade 4) | Dermatitis (Grade 5) | Hepatitis (Grade 5) | Others immune-related (Grade 5) | Amylase increased (Grade 1-2) | Lipase increased (Grade 1-2) | Hypothyroidism (Grade 1-2, first listing) | Amylase increased (Grade 3) | Anemia (Grade 3) | Hypercreatinine (Grade 3) | Hyperglycemia (Grade 3) | Hypokalemia (Grade 3) | Hyponatremia (Grade 3) | Hypothyroidism (Grade 3) | Leukopenia (Grade 3) | Lipase increased (Grade 3) | Neutropenia (Grade 3) | Thrombocytopenia (Grade 3) | Hypothyroidism (Grade 3, first listing) | Amylase increased (Grade 4) | Anemia (Grade 4) | Hypercreatinine (Grade 4) | Hyperglycemia (Grade 4) | Hypokalemia (Grade 4) | Hyponatremia (Grade 4) | Hypothyroidism (Grade 4) | Leukopenia (Grade 4) | Lipase increased (Grade 4) | Neutropenia (Grade 4) | Thrombocytopenia (Grade 4) | Hypothyroidism (Grade 4, first listing) | Amylase increased (Grade 5) | Anemia (Grade 5) | Hypercreatinine (Grade 5) | Hyperglycemia (Grade 5) | Hypokalemia (Grade 5) | Hyponatremia (Grade 5) | Hypothyroidism (Grade 5) | Leukopenia (Grade 5) | Lipase increased (Grade 5) | Neutropenia (Grade 5) | Thrombocytopenia (Grade 5) | Hypothyroidism (Grade 5, first listing) | Others (Skin) (Grade 1-2) | Rash, acneiform (Grade 1-2) | Dry skin (Grade 3) | Others (Skin) (Grade 3) | Rash, acneiform (Grade 3) | Dry skin (Grade 4) | Others (Skin) (Grade 4) | Pruritus (Grade 4) | Rash, acneiform (Grade 4) | Rash, maculopapular (Grade 4) | Rash, urticarial (Grade 4) | Dry skin (Grade 5) | Others (Skin) (Grade 5) | Pruritus (Grade 5) | Rash, acneiform (Grade 5) | Rash, maculopapular (Grade 5) | Rash, urticarial (Grade 5)
3 (9%) number of patients (%): Others (Gastrointestinal) (Grade 1-2) | Hepatitis (Grade 3) | Hypercreatinine (Grade 1-2)
6 (9%) number of patients (%): Dry skin (Grade 1-2) | Rash, maculopapular (Grade 1-2)
4 weeks: Median duration of dose interruption (seven patients with interruption)
2 (6%) number of patients (%): Constipation (Grade 1-2) | Nausea (Grade 1-2) | GGT increased (Grade 1-2) | ALT increased (Grade 3) | Dermatitis (Grade 1-2) | Hepatitis (Grade 1-2) | Dermatitis (Grade 3) | Rash, urticarial (Grade 1-2)
two: Permanent discontinuation due to immune-related adverse events (avelumab 10 mg/kg every 2 weeks after TACE and SBRT)
7 (21%) number of patients (%): Infusion-related reaction (Grade 1-2) | Weight decreased (Grade 1-2) | ALT increased (Grade 1-2) | Bilirubin raised (Grade 1-2)
8 (24%) number of patients (%): Pruritus (Grade 1-2)
1 (3%) number of patients (%): Fever (Grade 1-2) | Vomiting (Grade 1-2) | Adverse event, Lead to discontinuation (Grade 3) | Adverse event, Lead to discontinuation (Grade 4) | Any adverse event (Grade 4) | Abdominal pain (Grade 1-2) | AST increased (Grade 3) | AST increased (Grade 4) | Hyperglycemia (Grade 1-2) | Neutropenia (Grade 1-2) | Pruritus (Grade 3) | Rash, maculopapular (Grade 3) | Rash, urticarial (Grade 3)
6 (18%) number of patients (%): AST increased (Grade 1-2) | Hypokalemia (Grade 1-2) | Leukopenia (Grade 1-2)
5 (15%) number of patients (%): Others immune-related (Grade 1-2) | Anemia (Grade 1-2) | Hypothyroidism (Grade 1-2)
